Experimental data reported in patent US20240270854A1 (Stanford University, published 2024).

How the values were obtained:
[1] = target: BMPR2 on skeletal stem cells; test: cell-based or functional assay
[2] = target: BMPR1a on skeletal stem cells; test: cell-based or functional assay
Sequence of BMPR1a on skeletal stem cells (P36894 whole entry): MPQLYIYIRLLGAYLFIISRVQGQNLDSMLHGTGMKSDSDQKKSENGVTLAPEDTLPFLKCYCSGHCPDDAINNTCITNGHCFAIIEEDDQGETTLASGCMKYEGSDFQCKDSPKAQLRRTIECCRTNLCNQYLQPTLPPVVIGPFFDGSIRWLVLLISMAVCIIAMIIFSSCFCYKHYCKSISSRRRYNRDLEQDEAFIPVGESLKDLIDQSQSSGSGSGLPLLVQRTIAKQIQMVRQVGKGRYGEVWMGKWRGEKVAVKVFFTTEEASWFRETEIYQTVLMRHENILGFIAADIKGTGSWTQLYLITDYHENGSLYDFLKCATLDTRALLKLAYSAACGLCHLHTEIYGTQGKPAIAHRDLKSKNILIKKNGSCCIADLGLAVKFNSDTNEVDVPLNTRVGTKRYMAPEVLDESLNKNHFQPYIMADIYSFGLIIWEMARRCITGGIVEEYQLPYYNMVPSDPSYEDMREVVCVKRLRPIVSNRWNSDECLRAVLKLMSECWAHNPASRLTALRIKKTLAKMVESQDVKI

Sequence of BMPR2 on skeletal stem cells (Q13873 whole entry): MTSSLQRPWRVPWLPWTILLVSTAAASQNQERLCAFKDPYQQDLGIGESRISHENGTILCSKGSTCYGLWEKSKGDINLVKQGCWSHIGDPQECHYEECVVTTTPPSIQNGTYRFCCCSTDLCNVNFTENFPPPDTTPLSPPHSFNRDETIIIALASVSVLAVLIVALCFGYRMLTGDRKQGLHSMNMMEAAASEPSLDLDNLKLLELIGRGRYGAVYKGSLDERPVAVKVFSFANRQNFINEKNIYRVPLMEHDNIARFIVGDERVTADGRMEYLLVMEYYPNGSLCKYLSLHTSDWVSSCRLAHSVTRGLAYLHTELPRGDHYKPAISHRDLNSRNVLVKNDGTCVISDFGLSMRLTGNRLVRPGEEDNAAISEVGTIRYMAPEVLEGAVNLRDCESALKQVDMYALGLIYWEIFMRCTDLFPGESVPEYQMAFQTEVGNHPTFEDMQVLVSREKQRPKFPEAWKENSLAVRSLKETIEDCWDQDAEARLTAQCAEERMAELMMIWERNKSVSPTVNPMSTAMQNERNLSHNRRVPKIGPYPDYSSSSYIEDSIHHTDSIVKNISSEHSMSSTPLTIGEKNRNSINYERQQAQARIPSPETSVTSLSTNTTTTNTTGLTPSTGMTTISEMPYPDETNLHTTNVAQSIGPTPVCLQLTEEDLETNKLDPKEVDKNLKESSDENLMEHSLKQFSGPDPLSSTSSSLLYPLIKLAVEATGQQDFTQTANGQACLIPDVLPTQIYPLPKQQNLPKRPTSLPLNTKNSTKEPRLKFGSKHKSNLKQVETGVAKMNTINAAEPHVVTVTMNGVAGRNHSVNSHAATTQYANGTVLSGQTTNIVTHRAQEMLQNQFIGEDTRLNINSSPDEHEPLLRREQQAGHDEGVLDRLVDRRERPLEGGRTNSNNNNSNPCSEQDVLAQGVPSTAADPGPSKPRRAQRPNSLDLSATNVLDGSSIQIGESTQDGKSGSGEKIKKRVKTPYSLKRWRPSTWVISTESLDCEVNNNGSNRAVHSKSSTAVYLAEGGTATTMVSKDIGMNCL

p-smad1/5 signaling in SSCs after 30 minutes treatment [1]: 3 folds higher activation than control
p-smad1/5 signaling in SSCs after 30 minutes treatment [2]: 3 folds higher activation than control
B1: (NB1-4)-(NB2-43) (bispecific antibody)
chain: QVQLQESGGGLVQAGGSLRLSCAASGTIFYFSIMGWYRQAPGKEREFVAGIGVGSNTYYADSVKGRFTISRDNAKNTVYLQMNSLKPEDTAVYYCAAFDSISGELQYWGQGTQVTVSSGGGGSGGGQVQLQESGGGLVQAGGSLRLSCAASGSISSATVMGWYRQAPGKEREFVAAITAGGTTNYADSVKGRFTISRDNAKNTVYLQMNSLKPEDTAVYYCAVVVFTSQDRIYYYRYWGQGTQVTVSS
